This assay concerns the target FGFR4 ectodomain (Homo sapiens, UniProt P22455). The experiment in a line: AVEXIS normalised luminescence.

B1: 41 (protein)
chain: VYNVKTQKNEGIIIDKEGKENDNGNSDRNTPNNNNRLNRMTLNKEMYEKHNKMNNEEDNNKNINYDLSNLKDGMKKKHFGSNSAEDKTNKKSSINSVLEKYQHTKHEEKNLQNLNKNMMTHENDDSMKSIFISEESFESAKNVCQFIVMQNDYFKNFCNIASLVYDIEKLKKNNHKIYEEILSNSYENNNGAKFKLLKEINHAKVFKEMDNTNPKFSILFLYDKFCYGGIPLACSNLMKYDNVFDINEQSETTNKPDDNVNMEEMENYIINQAGMENGFEENVADLTQE
modifications: bait human Fc-tagged dimer
Molecule B1 displayed a binding score of 1.23.

B2: 28 (protein)
chain: GVLSFKFNTIKNLNVHLEIVMYGLFHIYNYKLNFKIVCDNGYYYIFNDCFPCPQGYYNNINIIKTNVDFINKCMKCDKNKATLIEKSSNKADCLCNFGYEYIKNPADPQEFICSPCTRGMYKNTISNKLCDGNACTGNFATSVIGAKNIIESTCFCKPGFYVTYDYRGIEFCKECLLHFYCPGNVIGIQKCPIHNEALQPEKRINFDSLHGCFCKKGYEPINILNINKAGTRDEHYYKLFHNTYADKFKDINPKHICMECDIGYYKDTISFQPCKKCPNQATNKKYGSTSLNDCNTCHSGYYKNINKACSTCLPNHFCVGDLLQKDLDKYSGDAVICPNNAVTKKPYTQNGAFKDCLCIEGYIKNYQESYNINDHCKLVPLNFYKDSISNDLGTPCPVNSITLNVGAKTINECLCNKGYFYNVKKQQCEECPIGFYCPKISSKNNIKKPIKCPKNSASIKKGMYISNNCQCNFGYTKYIHIDNNQALLNNNIIKYDNKKTNKMFYSFLSNNYYNYKNKINYINKAYNNRNLILLRNIQNKNAIYKKKKRKNVLCIRCPPMTYKGTISNDPCEACPLNSRTIESVNNAHIFFCLCNPGYYLHEQMCKPCSFSKLYCTGENIYIISQSLYETALQEIKNIYVSKNNDMYKMILMNLALYDYSQNVNINNNNNNNNNNNIHNNNIYNIYNSINHYNNDNNIFVNPIVNNKLKHHNNIIYPPYNLLNSQVDTIPFLKKKYGNNINIANILDLNSLYKEPIQNNNNLNTILKSFFHKDNENLIYVKYQNFVTCGKNTVIPLGVDSSYTFDDCKCKKGYYLKSKDINNAIKICEPCKTGTFKNYVGDDTFCLHCPPKSTSLEGSIYPTHCFCKGGFFYSKGYCLECLEGALCKGGLNKNVMQRMKFNMENILITEKDHIKPHSNKNYYLDKSVIDVVDVSEWKFIKCPIKGACLEKNKCHKSMNNYLCIECAKGYTNSFMTSLCVKCPNNIANM
modifications: bait human Fc-tagged dimer
The molecule B2 returned a binding score of 0.857.

B3: 80 (protein)
chain: INPATLIQNHLYMYQTNNAINEENIYNMKKFSKLPIAENTRNIRHSTNDLYYEHSLNLEKPNEHFTLHNIKLICQQIYHNQPNQLNLRILAVLLSTSYKQENIANIFQNLCNNGLSCLFTIQLSKNKAFVDQNKIVHLKIIDTDDLKRNKNNNIRHKITVYYICEDLKYKNQKQQESNEFKYVFNYEQLAFLKCENYLTVQVEKLVGINYNKEFHNLNPEYISFYCSQRVICNTHIEDLYKEDDKKRKNYIFYELTYRCVPPKVCSFCGNNAACKLEKLYNKEKEITQFYNNVEYNDAGVFDRLLLNKEEEEERNKASFVANLEYNAINYDIDDMITVGSNTYHILEICKCSKDYVQEGSSCVKKEKDKIYIRYAKK
modifications: bait human Fc-tagged dimer
Molecule B3 gave a binding score of 1.04.

B4: 15 (protein)
chain: MAFFSIFIILNFFMLSLTSSLGNGFLHSSITFSNDFCKGMNLHFLISAEEIDSKFFLNKMLLLILGGSSYMRYSKENYFSVSIYDKKLVYKNIKKIENIQGASYYEQLQSAFKKHIKPSARRTNLYESLKEYYEKYIIGNKNIKKSKNIIIIVKKFTSDDLSEYHENLNRYIKEIRSKDVGIYFFSDDSIYSKNIILNIAESGYNMEVQYPIAHFVSESYRANDLFGVKKFCYQLLHGATCKSYNEWSEWSGPCEFERRQRIIPLKITNIESTNFRSHYDPSCRNVFDYSMSIKEDFRVNCKNSIYECRGICDKGYKFKPYAKSNEIVESYEECNDLPPCTRDQRKNGDHTLYADVILNSLLSESSIQQIRDRDDRALIEKDMP
modifications: bait human Fc-tagged dimer
B4 showed a binding score of 0.902.

B5: 18 (protein)
chain: KENKNDNFLNGIYKLQNIWRNTALGELDLKKANIENAEGIIEKFNDANKADFNQHPHFRSKLSFLEHKNHKDMGIVTNHQNKDHKKNEYTSEEIIDMKPQLASQEMWRKGENFYMHGATNTNEQNDDEDLFESFHKNHNSNIKINSPCFDLQDKEMCSNNKECFYDDAYKACFQNCALVNEKKCSLYSECKHTPNGCQNEGYLNIQVFGSNLGGDVRACELFESEGSCYLMEKLFKKLSEEKKETSFNCVWISYKHELRSYDDENEPKENNDNIVALENKNKYMYMNNVESIHNNHHLENPYHEDIKHNKHKSFNYHVLSSSVPRQIAKNEKFLSLLQLNLKGKKKEKNKKKKKDDEDDDDIDEEDDDLDIEGKNNEFNADEEENSKDLKNNNIDDNEEDGTTDEDDLFNNKKKKKNNNNNNANNNNNKNKNKQNTNKKNNKIINEFDDDIDEVSEENLLNDEEKKQNKIKNKNINEANNIAENNEIEISSKDLTEQYEDKYNYDKKNNMGTNNNFNNANTFANNKNNLHNKYINHASHTQNEKDILKHNFYGKDNNGAYEIIKVETHICANLNEKPNPSTLLEGALIAENEAQLQKIKKKYKVTDNEICVRPTNSAYVSLIPDKKYYLLGEKIEFKCQEGYKIIGTTNIGVCTGRNIISPNIACESLTNFDDVEKDNIQKMNNIINS
modifications: bait human Fc-tagged dimer
In turn, B5 had a binding score of 1.

B6: 17 (protein)
chain: ANIDKVNLARNFLFSYIQKNLYYTRSYFNVAQLFSTLQIFLDQFCYPGLGRCIPYINKCLCYDKSKMKPKTAKSCLNNCGVISLCSGYPYGPGYKIIPNEFINNRKVVTCVVSSLQNKLDRTCGYNKKLRFNENKIYCIPYDLLDMNLAGIYCVNNNKEKIFCKGFLRQIYTNLKEYEILDIAYHNFILNNPCNEHIYDDGTNYKGCQDTSISGRKCLHWNSLNMEKVLPYLYLHNYCRNPEGLSYIYCYVDNNGIITREYCKSRSNIIFNNIAYSREKYFHFDITMKNVADFRIKLDNKPCNQRYFVNNHRINEFTYDKRNYAYHNINGEIALTISFKNFAYNTYYDYKLYICACFKYYYTNDLVICSTDNYKVEIGSFLITKAYTDKDTNVFYLNRQYNLAFNINYEIIKNEIYIIKGDYAYECNHLRIIGNDNIHMITNMNILFNYYKNQNFQKIHPPLEPNKKYSYIYSYFDPILDLSSILRKNELFINPQSSNIIKGYQNVDNLNNDGKTNSKSKFAKNKHMLQNGAP
modifications: bait human Fc-tagged dimer
As for B6, the binding score stood at 0.943.

B7: 52 (protein)
chain: AEEHEITHKTYFDITIDDKPLGRIVFGLYGKVAPKTVENFVSICKGTVVDGKMLHYTNSIFHRIIPNFMAQGGDITNFNGAGGLSIYGKKFEDENFKVNHAKRGLLSMANAGKNTNGAQFFILFIPTPWLDGRHVVFGEVVEGLDKLVHIEAVGTDSGEPLKRVLVKESGELPL
modifications: bait human Fc-tagged dimer
On to B7, for which the binding score turned out to be 1.22.

B8: 16 (protein)
chain: NNLDKNKNFIQYKNFKKNKAYKYKNNNNNIIIINSHSHSNSHSNSHSHSNSHSNSHSHSNSHSNSHSHSNSHSHSHSNSHSNSHSHSSTQNSLYHDTNQANFLKPTSFFLYKHHVYFNQKYKKDPNILNKLKVPRNHIFHINKCDLNYYIQNYEFFFFFPDYYEYSHLYIRLDKLFYFQRCGCDTNIKKTKKRNQNIFNNMLGMKEKDTYLQNEICDIYWNYLKDDNTYDKYNFAIINYIKNIIKKMYRYLYIYKVFVLKQFYRIVYYNQGIRNFYYMLFSYIYNKGSIIYNYNQMYFKKHRKKQTIIRSKRFMNEHIKEEDVDYNIVKDEKDKSIQSTEQKSYLKNNAIQYFQCFLDKAMENKNAENELDKWIDPQSKSCYCSEEFAEPCTSEDLVDINNINQIMDNAFCEYNNNDNNNNDNNKNNNNNINNIINIYDNNILGDNVKNIFVALSEYKILQCNDKEKKDIIKKEQLYNYCKYGLNIWDNKNMYDYLNCLNVISYNKKDDKTCIRKCENIKKLCNIVAQFYSFEVCKKYYENNKHTEDIYINNFKYFSDHCKYIDPTNRGLVLCKHKNVECVYSQWSEWSTCSKTCIENEYDTNSARTRTRILLNKFEVPSKSCSFIINEKNNLMDINFCSYLPFCNKNNDMKKKDDERIMPFVISIKEIEKLNTLKYLNNDDNDLLNENYKNYESVHKNNECKVTDMYQYEYAISYNEKNKACSCPNNQAPCYFKDIYNSESWKKSLHILCKHNPHINVITADYIIIDCNMAISIKKKEIAVNTYLAMTFNCHSDIFQYIFCAKNIQSIRTN
modifications: bait human Fc-tagged dimer
Turning to B8, the binding score stood at 1.5.

B9: 66 (protein)
chain: KIISCVIQKNPILHLWKIYSFQKCPHNYYCEQESLKKKKCPPNSIKTIYDGTINDCLCLPGYYLKGNIQTCIPCEKGSYKNTISNDACIKCPINFATLFETSKSVYDCVCRKGYYFSWNTNIDTNDIEKKNIYNNNINSIYRNKNEIKLIKELEEEYAFNVEKKRKNKHKFILHKKLNNRYRENIHKKQISLKRKIKFLNEQKEINNHLNFLHVNEILNIAFFNDNQNYIYKNKNKQENDANIEINPVSKQTSLHSNNIANKYMRNNFLQINEKLYINNANNNYNEYIHKAQCTKCPRKMFCPGYWLENYENEIHHPPIYCPKGSLILGTTIESTDIHKCICRKGYSINLAIKPNRNKNVNVNDNDNGNNNNNANNNNNNANGNSATLNNNNNMCVMCKEGYYKDVIDNSVCAGLCIEFSTSFKGSISKKQCFCTVGKYMIQDEKDENKCINCAKGSICIGGFKFKSLRELIKNQYYINLNIYDHSIPLPKKGYFATFQINHEDFKWKPLNSLHIEINNYEKGNIIITDKIILNVFHKKLHLINIGEKNKYDQADQGIYIKKNLNNNAFIHNNNNIKYIVEESKHLRDRTMANIPNEPILVNEKLEPIIYKNNFLMIDRIPDFHLCPISNRCMGTSSNLCFKGSEGYLCNNCANSYDVIHFRSQCIKCRKKKTEM
modifications: bait human Fc-tagged dimer
B9 came in with a binding score of 0.776.

B10: 12 (protein)
chain: SDTFRVFEDFDVRRKNKIWCCNLNHEKSYFHNKAINTAYKNRVLKESILLNLDLDMKKYKDNIITRKKTPENIYKEIYENNYEMKYDEDIPNNMAEEKRDEKEVIEHLEIDEKNGKQYKSDINKPVSLSHLKQYKNIYVNNNNKINKKKSIDKHLPSYNLERKNNKYLNFLLVDNRNEAYTFMVPMKFYINHEMYNIADEEYNKLMEDNSVDVYLNNILVEYKYENFEIKEGEVDGEVEGEGEVEGEVEGEVKGKVVEGIENNMNEEEKYNKDNKDKENQINSNGQDENTEFQENDNNDAVIMKYT
modifications: bait human Fc-tagged dimer
For B10, the binding score was determined as 0.891.

The values are drawn from publication PMC11098746 (2024).
